What was measured:
[1] = target: T1, recombinant GRP78 ATPase domain (Homo sapiens, UniProt P11021); test: NMR binding to recombinant GRP78 ATPase domain
T1 construct: NMR studies with a recombinant GRP78 ATPase domain

A549 = test: Tumor cell proliferation, A549; format: cell-based; settings: A549, 72 hours
Procedure: (§1) Cell Proliferation Assay. The effect of rK5 and rK5 peptides on endothelial cells were assessed using a proliferation assay with 1% BSA and 3 ng/ml bFGF in serum-free media. Relative cell numbers in each well of a 96 well microplate after incubation for 72 hours in the absence or presence of inhibitors were determined by using the AQueous cell proliferation assay (Promega, San Luis Obispo, Calif.). For all other cell lines tested for proliferation, minimal growth media was used (Cao, Y., Ji, R., Davidson, D., Schaller, J., Marti, D., Sohndel, S., McCance, S., O'Reilly, M., Llinas, M., and Folkman, J. Kringle domains of human angiostatin. Characterization of the anti-proliferative activity on endothelial cells. (1996) J. Biol. Chem. 271, 29461-29467). Results are presented as the percent inhibition of control cell (bFGF-induced) proliferation.

HT1080 = test: Tumor cell proliferation, HT1080; format: cell-based, human; settings: HT1080, 72 hours
Procedure: as §1

HMVEC = HMVEC (Homo sapiens, UniProt P11021); test: VEGF-stimulated HMVEC migration (Boyden chamber); format: cell-based; settings: read-out: inhibition of endothelial cell migration
Procedure: Endothelial cell migration assays: The effect of rK5 on endothelial cell migration was determined by two different methods. The first assay was performed in a 96 well plate with a cellulose membrane between the upper and lower chambers. HMVEC were starved of growth factors overnight, labeled with fluorescent calcein AM (50-100 nM), plated into a 96 well migration chamber (2.9×10^4/well) (Neuroprobe, Gaitherburg, Md.), and stimulated to migrate with VEGF (5 ng/mL). After 4 h, migrated cells were measured by fluorescence (Frevert C W, Wong V A, Goodman R B, Goodwin R, Martin T R. Rapid fluorescence-based measurement of neutrophil migration in vitro. J Immunol Methods. 1998 Apr. 1;213(1):41-52). In a second assay for cellular migration, a standard Boyden chamber was used (Polyerini, P. J., Bouck, N. P. & Rastinejad, F. Assay and purification of naturally occurring inhibitor of angiogenesis. Meth. Enzymol. 198, 440-450 (1991)). HMVEC cells were starved overnight in DME containing 0.1% bovine serum albumin (BSA) and harvested by scraping and resuspended in DME with 0.1% BSA at 1.5×10^6 cells per ml. Cells were added to the bottom of a 48-well, Boyden chamber. The chamber was assembled and inverted, and cells were allowed to attach for 2 hours at 37° C. to polycarbonate chemotaxis membranes (5 μm pore size) that had been soaked in 0.1% gelatin overnight and dried. The chamber was re-inverted, test substances, including activators were added to the wells of the upper chamber and the apparatus was incubated for 4 hours at 37° C. Growth factors were used, where indicated, at concentrations determined in preliminary experiments to give equivalent migration responses of about 100 cells migrated/high powered field (400×). […] Membranes were recovered, fixed and stained and the number of cells that had migrated to the upper chamber per 10 high power fields counted. Background migration to DME+0.1% BSA was subtracted and the data reported as the number of cells migrated per 10 high power fields (400×) or, when results from multiple experiments were combined, as the percent inhibition of migration compared to the positive growth factor control (Polyerini, P. J., Bouck, N. P. & Rastinejad, F. Assay and purification of naturally occurring inhibitor of angiogenesis. Meth. Enzymol. 198, 440-450 (1991)).

[2] = test system: EAHY cell surface proteins (~75 kDa and ~95 kDa); test: S-tag-K5 affinity pull-down of biotinylated EAHY surface proteins; format: binding; settings: 100 nM S-tag-K5; 1 μM peptides, 10 μM cold rK5
Procedure: The second method used to identify cell surface rK5 binding proteins was described previously (Zhang, J. C., et al, supra). Surface proteins on 4×10^6 EaHy cells were labeled with NHS-biotin. The cells were washed and lysed (M-Per, Pierce). Cell lysates were mixed with S-tag K5 for 1 hour at room temperature. S-tag K5 bound proteins were precipitated with S-protein agarose (Pierce). Bound proteins were eluted with excess rK5 or with excess PRKLYDY (SEQ ID NO:1) peptide. Eluted proteins were visualized with avidin-HRP and a chemiluminescent substrate. Mass spectroscopic analysis was used to identify the major protein bands.
In particular, surface proteins on 1×10^6 EAHY cells were labeled with NHS-biotin. The cells were washed 3× with PBS and lysed with M-pur. Cell lysates were mixed with (A) 100 nM S-tag-K5, (B) 100 nM S-tag-K5 plus 1 μM PRKLYDY, (C) 100 nM S-tag-K5 plus 10 μM cold rK5 and (D) 100 nM S-tag-K5 and N-terminal K5 peptide at 1 μM for 1 hour at room temperature. The K5 binding proteins were precipitated with S-protein-agarose. Bound proteins were eluted with 50 mM glycine buffer at pH 3.0 and run for PAGE analysis. Surface proteins (biotinylated) that bind K5 were visualized with avidin-HPR and a chemiluminescent substrate.

B16F10 = test: Tumor cell proliferation, B16F10; format: cell-based; settings: B16F10, 72 hours
Procedure: as §1

[3] = test system: bovine endothelial cell proliferation; settings: previously reported (Cao et al. 1996); read-out: IC50, inhibition of bovine endothelial cell proliferation; cited from earlier work

Sequence of HMVEC (P11021 19-654): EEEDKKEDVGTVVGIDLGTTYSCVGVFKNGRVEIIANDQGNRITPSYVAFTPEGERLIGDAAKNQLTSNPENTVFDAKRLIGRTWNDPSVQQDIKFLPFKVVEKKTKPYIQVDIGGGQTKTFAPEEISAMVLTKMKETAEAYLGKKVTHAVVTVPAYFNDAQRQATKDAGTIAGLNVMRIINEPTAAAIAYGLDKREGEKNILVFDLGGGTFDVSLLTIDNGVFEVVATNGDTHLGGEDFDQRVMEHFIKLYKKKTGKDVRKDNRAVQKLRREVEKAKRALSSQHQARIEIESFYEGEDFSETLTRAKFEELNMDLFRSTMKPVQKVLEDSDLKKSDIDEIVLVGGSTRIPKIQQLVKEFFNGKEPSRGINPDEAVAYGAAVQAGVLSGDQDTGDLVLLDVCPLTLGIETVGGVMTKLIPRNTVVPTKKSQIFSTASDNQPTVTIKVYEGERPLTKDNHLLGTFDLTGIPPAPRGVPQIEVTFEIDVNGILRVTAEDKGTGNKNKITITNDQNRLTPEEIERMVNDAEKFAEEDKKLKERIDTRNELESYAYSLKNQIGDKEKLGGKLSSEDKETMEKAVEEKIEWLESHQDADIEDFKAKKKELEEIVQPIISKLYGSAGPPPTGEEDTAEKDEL
T1 sequence (P11021 19-408): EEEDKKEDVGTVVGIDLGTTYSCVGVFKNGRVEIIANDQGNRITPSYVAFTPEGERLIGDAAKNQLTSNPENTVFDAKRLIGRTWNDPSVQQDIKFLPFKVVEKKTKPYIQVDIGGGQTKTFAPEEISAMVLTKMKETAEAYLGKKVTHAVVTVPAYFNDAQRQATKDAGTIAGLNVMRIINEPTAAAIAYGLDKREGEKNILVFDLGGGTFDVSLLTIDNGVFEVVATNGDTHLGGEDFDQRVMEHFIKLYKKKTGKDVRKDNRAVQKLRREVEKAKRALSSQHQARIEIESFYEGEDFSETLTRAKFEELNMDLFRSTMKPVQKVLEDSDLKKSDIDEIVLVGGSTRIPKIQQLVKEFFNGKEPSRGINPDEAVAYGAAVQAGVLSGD

B1: rK5: recombinant kringle 5 fragment of human plasminogen (residues 450-543), expressed in E. coli or yeast (protein)
chain: LLPDVETPSEEDCMFGNGKGYRGKRATTVTGTPCQDWAAQEPHRHSIFTPETNPRAGLEKNYCRNPDGDVGGPWCYTTNPRKLYDYCDVPQCAA
- binding with the ATPase domain of GRP78 (NMR) [1]: direct binding
- IC50 values for cell proliferation (A549): >100 µg/mL
- IC50 values for cell proliferation (HT1080): >100 µg/mL
- IC50 (HMVEC): 0.25 nM
- competition of protein binding to the S-tag K5 column [2]: competed
- IC50 values for cell proliferation (B16F10): >100 µg/mL
- IC50 [3]: ~50 nM

Reference: US20050053993A1, “Uses of an endothelial cell receptor” (priority 2002, published 2005)
